Laboratory results from the nanobody polyreactivity screen of Harvey et al. (2022).

Experiment: yeast display, Sf9 membrane polyspecificity reagent, FACS + sequencing; frameworks hold sequencing errors
Outline: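 Nanobodies from a synthetic yeast display library (Saccharomyces cerevisiae BJ5465), induced 36–48 hours with galactose, were stained 1 hour at 4 °C with 10% biotinylated, detergent-solubilized Sf9 membrane reagent, enriched on streptavidin microbeads, then FACS-sorted. Anti-HA (expression) and streptavidin (reagent binding) fluorescence set low and high (top ~1%) gates. Polyreactivity labels come from the gate of origin. Genes were colony-PCR amplified, MiSeq 2 × 250 sequenced and filtered by CDR length.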

Row | Sequence | polyreactivity (PSR sort gate)
1 | QVQLVESGGGLVQAGGSLLLSCAASGRTSAYYAMGWYRQAPGKERELDAGITRGGRTNDADSVKWRFTISRDNAKYTDYFQMNSLNPEDTAVYYCAAKYGFYWNSRTSGYWGQVTQVTVSS | high polyreactivity
2 | QVQLVESGGGLVQAGGSLLLSCAASGSIFDAYAMGWYRQSRGKERELVAAITSGGSTYYADSVKGRFTISRDNAKNNVYLQMNSLKPEDTAVYYCAAQYYDYKTTYDYWGQGTQVTVSS | high polyreactivity
3 | QVQLVESGGGLVQAGGSLLLSCAASGSIFGKNAMGWYRQAPGKERELVAAISRSGARTYYADSVKGRFTISRDNAKNTVYLQMNSLKPEDTAVYDCAAVYWWAYRGTYSSLYKHFVYWGQGSQVTVSS | high polyreactivity
4 | QVQLVESGGGLVQAGGSLLLSCAASGSIFITYAMGWYRLAPGKERELVAAIRDSGDRTYYADSVKGRFTISRDNAKNTVYLQMNSLKPEDTAVYDCNARWQEPLKYDYWGQGTQVTVSS | low polyreactivity
5 | QVQLVESGGGLVQAGGSLLLSCAASGSIFPYYAMGMYRQAPGKERELVAAITDGGSTNYADSVKGRFTISRDNAKNTFYLQMNSLKQEDTAVYYCNKLPGYYDYDYWGQGTQVTVSS | low polyreactivity
6 | QVQLVESGGGLVQAGGSLLLSCAASGSIFYSNAMGWYRKAPGKERELVAAIRRSGGSTYYADSVKGRFTISRDNAKYTVYLQMNSLKPEDTAVYYCATTRRVPGEYWGQGTQVTVSS | high polyreactivity
7 | QVQLVESGGGLVQAGGSLLLSCAASGSTFDDKAMGWYRQAPGKERELVAAISSDGSTNYADSVKGRFTISRDTAKNTVYLQMNCLKPADTAVYYCAAESPWDWGSWFEALYDYWGLGTQVTVSS | high polyreactivity
8 | QVQLVESGGGLVQAGGSLLLSCAASGSTFDWYVMGWYRPAPGKERELVAAINQGSGSTYYADSVKGRFTISRDNAKNTVYLQMNSLKPEDTAVYYCAADRYGAGYLYWPYDYWGQGTQVTVSS | low polyreactivity
9 | QVQLVESGGGLVQAGGSLLLSCAAYGSTFWYNAMGWYRQAHGKESELVAAITWTGSRTYYADSVKGRFTISRDNAKNTVYLQMNSLKPEDTAVYYCNRTRSFTRYDVFYGTIPAFDYWGQGTQVTVSS | high polyreactivity
10 | QVQLVESGGGLVQAGGSLLLSCSASVLIFYDNDMGWYRQAPGKERVFVAAITSLGGSTYYADSVKGRFTISRDNAKNTVYLQMNSLKPEDTAVYYCNVKSKYYSPNYDYWGQVTQVTVSS | low polyreactivity
11 | QVQLVESGGGLVQAGGSLLLTCAASGITFGLYAMGWYREAPGKERELVAAIFSGGITYYADSVKGRFTISRDNAKNTVYLQMNSRKPVDTAVYYCAAYKYSYKYYYWGQGTQVTVSS | low polyreactivity
12 | QVQLVESGGGLVQAGGSLPLSCAASGFNFRSYAMGWYRQAPGTERELVAAISSGGSTYYADSVKGRFTISRDNAKNTVYLQMNSLKPEDTAVYYCGASRYYGYGHWGQGTQVTVSS | high polyreactivity
13 | QVQLVESGGGLVQAGGSLPLSCAASGRIFNQYGMVWYRQAPGKERELVAAIRSGDSTNYADSVKGRFTISRDNAMNTVYLQMKSLKPEDPAVYYCARDRPGDYAGYDYWGQGTQVTVSS | low polyreactivity
14 | QVQLVESGGGLVQAGGSLPLSCAASGRIFNYYAMGWYRQAPGKERDFVATISTSGGSTYYADSVKARFTISRDNAKNTVYLQMISLKPEDTAVYYCAARRYYSLRTFLYWFSKYDYWGQGTQVTVSS | high polyreactivity
15 | QVQLVESGGGLVQAGGSLPLSCAASGRIFRGYAMGWYRQAPGKERELVAAISRTGGSTYYADSVKGRFTISRDNAKNTVYLQMNSLKPEDTEVYYCNANRFRRYDWGQGTLVTVSS | high polyreactivity
16 | QVQLVESGGGLVQAGGSLPLSCAASGRIFYFNAMGWYRPAPGKEREFVASINSIGDSTYYADSVKGRFTISRDNAKKTVYLQMHSLKPEDTAVYYCNADHGVINYRLDYWGQGTQVTVSS | low polyreactivity
17 | QVQLVESGGGLVQAGGSLPLSCAASGRTFRRYAMGWYRQAPGKETELVAAISWGAGSTRYADSVKGRFTISRDNAKNTVYLQLNSLKPEDTAVYYCAAENTRAYGMYYWGQGTQVTVSS | high polyreactivity
18 | QVQLVESGGGLVQAGGSLPLSCAASGSIFDLYTMGWYRQAPGKEREMVASISSSGGSTYYADSVKGRFTISRDNAKNTVYLQMNSLKPEDTAVYYCAAVASYHAYQYYYWGQGTQVTVSS | high polyreactivity
19 | QVQLVESGGGLVQAGGSLPLSCAASGSIFGTYAMGWYRQAPGKERELVAAITTSAGSTYYADSVKGRFTISRDNAKNTVYLQMKSLKPEDTAVYYCAARFRRGITYEYWGQGTQVTVSS | high polyreactivity
20 | QVQLVESGGGLVQAGGSLPLSCAASGSNFWRNALGWYRQAPGKERELVAAISGSGGSTYYADSVKGRFTISRDNAKNTVYLQMNSLKPEDTAVYYSYVSRMDYWGQGTQVTVSS | high polyreactivity
21 | QVQLVESGGGLVQAGGSLPLSSAAYGSIFYYNAMGWYRQAPGKERELVAAISYSGDSTSYADSVKGRFTISRDNAKNYVFLQMYRLKPEDTAVFYCAAEQDYEDFYEDYYWGQGTQVTVSS | high polyreactivity
22 | QVQLVESGGGLVQAGGSLPLTCAASGRIFGVYAMGWYRQAPGKERELVASISWSGSSTYYADSVKGRFTISRDNEKNTVYLQMNSLKPEDTAVYYCAADANHYRYGGGYWGQGTQVTVSS | low polyreactivity

Row | Sequence | polyreactivity (PSR sort gate)
23 | QVQLVESGGGLVQAGGSLRFNCSASGSIFVRYTIGWYRQAPGKERELVAAISWGGGSTYYADSVKGRFTISRDNANNTVYLQMNSLKPEDTAVYYCNKRYIQLYDYWGQGTQVTVSS | low polyreactivity
24 | QVQLVESGGGLVQAGGSLRFSCAASGFIFRRYTMGWYRQAPGKERELVAAISITGSRTYYADSVKGRFTISRDNAKNTVYLQMNSLKPEDTAVYYCAARVWYAPKTLFGYDFDYWGQGTQVTVSS | high polyreactivity
25 | QVQLVESGGGLVQAGGSLRFSCAASGFIFTLYAMGWYRQAPGKERELVASIRGSGGNTYYADSVKGRFTISRDNEKNTVYLQMNSLKPEDTAVYYCAARTYRRPYYSWGQGTQVTVSS | high polyreactivity
26 | QVQLVESGGGLVQAGGSLRFSCAASGFTFSYYAMGCYRQAPGKERELVAAISWSGGSTYYADSVKGRFTISRDTAKNTVYLQMNSLKPEDTAVYYCAAYLFYSSRSSYYGYDYWGQGTQVTVSS | high polyreactivity
27 | QVQLVESGGGLVQAGGSLRFSCAASGGIFFRNAMVWYRQAPGKEREFVAVISSGGSTYYADSVKGRFTISRDNAKNTVYLQMNSLKPEDTAVYYCAARRKRPGYTVTLHYPYNYWGQGTQVTVSS | high polyreactivity
28 | QVQLVESGGGLVQAGGSLRFSCAASGGIFRLYGMGWYREAPGKERELVAAIRQSGGRTYYADSVKGRFTISRDNAKNTVYLQMNSLKPEDTAVYYCAADLLYRSSGTVRSDYSRYDYWGQGTQVTVSS | low polyreactivity
29 | QVQLVESGGGLVQAGGSLRFSCAASGIIFQRNDMGLYRQAPGKERELVANIRDGGITYADSVKGRFTLSRDNAKNTFYLQMNSLKPEDTAVYYCAADYHTPSSFAPIELYDYWGQGTQVTVSS | low polyreactivity
30 | QVQLVESGGGLVQAGGSLRFSCAASGRIFGRYAMGWYRQAPGKERELVAAISSTGGSTYYADSVKGRFTISRDNANNTVYLQMNSLKPEDTAVYYCATVWYGRYYWATEYWGQGTQVTVSS | high polyreactivity
31 | QVQLVESGGGLVQAGGSLRFSCAASGRPFPYYVMGWYRQAPGKERELVAAINSGGRTNYADSVKGRFTISRDNAKNTVYLQMNSLKPEDTAVYYCTKRGHPARLGYYYWGQGTQVNVSS | low polyreactivity
32 | QVQLVESGGGLVQAGGSLRFSCAASGRTFPVYAMGWYRQAPGKEREFVAAISYRTGSTYYADSVKGRFTISRDNAKNTVYLQMNSLKPVDSAVYYCAADYRGSYWRYYYWGQGTQVTVSS | high polyreactivity
33 | QVQLVESGGGLVQAGGSLRFSCAASGRTFTIYAMGWYRQAPGKERELVAAISWSEGSTYYADSVKGRFTISRDNAKNTVYLQMNSLKPEDTAVYYCAREVYGDASAPDMDYWGQGTQVTVSS | low polyreactivity
34 | QVQLVESGGGLVQAGGSLRFSCAASGRTFWSNAMGWYRQAPGKERDFVAVISRAGSTTYYADSVKGRFTISRDNAKNTVYLQMNSLIPEETAVYYCAADRVRSYFSRYYSTPLDYYWGQGTQVTVSS | high polyreactivity
35 | QVQLVESGGGLVQAGGSLRFSCAASGRTITRYAMGWYRQAPGKERELVAAISKRGTRTYYADSVKGRFTISRDHAKNTVYLQMNSLKPADTAVYYCNGAGRWALYYHLYTGFDYWGQGTQVTVSS | high polyreactivity
36 | QVQLVESGGGLVQAGGSLRFSCAASGRTSRYYAMRWYRQAPGKERELVAGISTGGSTYYADSVKGRFTISRDNAKNTVYLQMKSLKPEDTAVYYCAAKYTRTNYYYWYYRMDFWGQGTQVTVSS | low polyreactivity
37 | QVQLVESGGGLVQAGGSLRFSCAASGSIFDYYAMGWYRQAPGKERELVASITWSGGRTSYADSVKGRFTISRDNAKNTVYLQMNSLKPEDTAVYYCAAKLWSYAYQHKRVWYYYWGQGTQVTVSS | high polyreactivity
38 | QVQLVESGGGLVQAGGSLRFSCAASGSIFFNNAMGWYRQAPGKERELVAAITTGGSTYYADSVKGRFTISRDNAKNTVYLQMNSLKPEDTAVYYCAAVVVYPYRLGYDYWGQGTQVTVSS | low polyreactivity
39 | QVQLVESGGGLVQAGGSLRFSCAASGSIFSWYAMGGYRQAPGKERELVAAITWTGGSTYYADSVKGRFTISRDNAKNTVYLQMNSLKPEETAVYYCAARRVVYRKYGDRARWYNYWGHGTQVTVSS | high polyreactivity
40 | QVQLVESGGGLVQAGGSLRFSCAASGSILYYNAKGWYIQAPGKEREFVAAISDSGSSTYYADSVKGRFTISRDTAKNTVYLQMNSLKPEDTADYYCNAYQGDKYDSWGQGSQVTVSS | low polyreactivity
41 | QVQLVESGGGLVQAGGSLRFSCAASGSTFIGYAMGWYRQAPGKERELVAGISRGGRTNYADSVKGRFTISRDNAKHTVYLQMNSLKPEDTAVYYCAAGYRRYYEGFWVIQMNYWGQGTQVTVSS | high polyreactivity
42 | QVQLVESGGGLVQAGGSLRFSCAASGSTFKAYAMGWYRQAPGKERDLVARITYSGDITYYADSVKGRFTISRDNAKNTVYVQMNSLKRDDTAVFYCNDGFFVLEYDYWGQGTQLTVSS | low polyreactivity
43 | QVQLVESGGGLVQAGGSLRFSCAASGSTFRYNAMGWYRQAPGKERELVAVISWGGGRTYYADSVKGRFTISRDNAKNTVYLKMNSLKPEDTAVYYCNVYFGRIVARDYGYWGQGTQVTVSS | high polyreactivity
